These results are taken from US20100222269A1 (Novo Nordisk, published 2010).

Starred links: 1 amine or outer side, 2 acyl side, 3 side chain; linkers in the order of their positions; H or OH if unused. Positions of bridges follow the written chain, without caps; N, C: chain ends. Non-standard residues stand in square brackets, D forms with d. Groups on a side chain read outwards from the residue. No end group written: not given here. *: point of attachment. C20 diacid = O=C(O)CCCCCCCCCCCCCCCCCCC(=O)*; C18 diacid = O=C(O)CCCCCCCCCCCCCCCCC(=O)*; γGlu = O=C(O)[C@H](CCC(=O)[*:2])N[*:1]; AEEA = NCCOCCOCC(=O)O

B1: N-epsilon29-(2-{2-[2-(2-{2-[2-(19-carboxynonadecanoylamino) ethoxy]ethoxy}acetylamino)ethoxy]ethoxy}acetyl)-[Lys29]-pramlintide (1-37) (peptide)
peptide: KCNTATCATQRLANFLVHSSNNFGPILPK([AEEA-AEEA-C20 diacid])TNVGSNTY-NH2
modifications: disulfide 2-7 (inferred)
B2: N-alpha-(4-carboxy-4-{6-[4-(16-1H-tetrazol-5-yl-hexadecanoylsulfamoyl) butyrylamino]hexanoylamino}butyryl)-Glu-Glu-Arg-[Glu1]-pramlintide (1-37) (peptide)
peptide: EERECNTATCATQRLANFLVHSSNNFGPILPPTNVGSNTY-NH2
modifications: disulfide 5-10 (inferred); not fully specified (N-terminus)
B3: N-alpha-(19-carboxynonadecanoyl)-Glu-Lys-Arg-pramlintide (1-37) (peptide)
peptide: {C20 diacid}-EKRKCNTATCATQRLANFLVHSSNNFGPILPPTNVGSNTY-NH2
modifications: disulfide 5-10 (inferred)
B4: N-alpha-[(S)-4-carboxy-4-(19-carboxynonadecanoylamino)butyryl]-Arg-[Arg1]-pramlintide (1-37) (peptide)
peptide: {C20 diacid-γGlu}-RRCNTATCATQRLANFLVHSSNNFGPILPPTNVGSNTY-NH2
modifications: disulfide 3-8 (inferred)
B5: N-epsilon25-(2-{2-[2-(2-{2-[2-(19-carboxynonadecanoylamino) ethoxy]ethoxy}acetylamino)ethoxy]ethoxy}acetyl)-[Lys25]-pramlintide (1-37) (peptide)
peptide: KCNTATCATQRLANFLVHSSNNFGK([AEEA-AEEA-C20 diacid])ILPPTNVGSNTY-NH2
modifications: disulfide 2-7 (inferred)
B6: N-alpha-(19-carboxynonadecanoyl)-Glu-[Arg1]-pramlintide (1-37) (peptide)
peptide: {C20 diacid}-ERCNTATCATQRLANFLVHSSNNFGPILPPTNVGSNTY-NH2
modifications: disulfide 3-8 (inferred)
B7: N-alpha-(19-carboxynonadecanoyl)-Glu-Lys-[Arg1]-pramlintide (1-37) (peptide)
peptide: {C20 diacid}-EKRCNTATCATQRLANFLVHSSNNFGPILPPTNVGSNTY-NH2
modifications: disulfide 4-9 (inferred)
B8: N-epsilon29-(19-carboxynonadecanoyl)-[Lys29]-pramlintide (1-37) (peptide)
peptide: KCNTATCATQRLANFLVHSSNNFGPILPK(C20 diacid)TNVGSNTY-NH2
modifications: disulfide 2-7 (inferred)
B9: N-alpha-[(S)-4-carboxy-4-(19-carboxynonadecanoylamino)butyryl]-Lys-pramlintide (1-37) (peptide)
peptide: {C20 diacid-γGlu}-KKCNTATCATQRLANFLVHSSNNFGPILPPTNVGSNTY-NH2
modifications: disulfide 3-8 (inferred)
B10: N-alpha-[(S)-4-carboxy-4-(19-carboxynonadecanoylamino)butyryl]-Glu-Glu-Arg-[Glu1]-pramlintide (1-37) (peptide)
peptide: EERECNTATCATQRLANFLVHSSNNFGPILPPTNVGSNTY
modifications: N-alpha-[(S)-4-carboxy-4-(19-carboxynonadecanoylamino)butyryl] on the N-terminal Glu of the extension; disulfide bridge between the two Cys; C-terminal amide
B11: N-epsilon25-(2-{2-[2-(2-{2-[2-(17-carboxyheptadecanoylamino) ethoxy]ethoxy}acetylamino)ethoxy]ethoxy}acetyl)-[Arg18,Lys25]-pramlintide (1-37) (peptide)
peptide: KCNTATCATQRLANFLVRSSNNFGK([AEEA-AEEA-C18 diacid])ILPPTNVGSNTY-NH2
modifications: disulfide 2-7 (inferred)
B12: N-alpha-(17-carboxyheptadecanoyl)-Glu-Glu-Arg-[Glu1]pramlintide (1-37) (peptide)
peptide: {C18 diacid}-EERECNTATCATQRLANFLVHSSNNFGPILPPTNVGSNTY-NH2
modifications: disulfide 5-10 (inferred)
B13: N-alpha-(2-{2-[2-((S)-2-{(S)-4-carboxy-2-[(S)-4-carboxy-2-(19-carboxynonadecanoylamino)butyrylamino]butyrylamino}-5-guanidinopentanoylamino) … (peptide)
peptide: {C20 diacid}-EER[AEEA]ECNTATCATQRLANFLVHSSNNFGPILPPTNVGSNTY-NH2
modifications: disulfide 6-11 (inferred)
B14: N-epsilon17-(2-{2-[2-(2-{2-[2-(19-carboxynonadecanoylamino)ethoxy]ethoxy}acetylamino)ethoxy]ethoxy}acetyl)-[Lys17]-pramlintide (1-37) (peptide)
peptide: KCNTATCATQRLANFLK([AEEA-AEEA-C20 diacid])HSSNNFGPILPPTNVGSNTY-NH2
modifications: disulfide 2-7 (inferred)
B15: N-epsilon2′-(2-{2-[2-(2-{2-[2-(19-carboxynonadecanoylamino) ethoxy]ethoxy}acetylamino)ethoxy]ethoxy}acetyl)-[Lys21]-pramlintide (1-37) (peptide)
peptide: KCNTATCATQRLANFLVHSSK([AEEA-AEEA-C20 diacid])NFGPILPPTNVGSNTY-NH2
modifications: disulfide 2-7 (inferred)
B16: N-alpha-[(S)-4-carboxy-4-(19-carboxynonadecanoylamino)butyryl]-pramlintide (2-37) (peptide)
peptide: {C20 diacid-γGlu}-CNTATCATQRLANFLVHSSNNFGPILPPTNVGSNTY-NH2
modifications: disulfide 1-6 (inferred)
B17: N-alpha-[(S)-4-carboxy-4-(19-carboxynonadecanoylamino)butyryl]-Arg-pramlintide (1-37) (peptide)
peptide: {C20 diacid-γGlu}-RKCNTATCATQRLANFLVHSSNNFGPILPPTNVGSNTY-NH2
modifications: disulfide 3-8 (inferred)
B18: N-alpha-[(S)-4-carboxy-4-(19-carboxynonadecanoylamino)butyryl]-[Arg1]-pramlintide (1-37) (peptide)
peptide: {C20 diacid-γGlu}-RCNTATCATQRLANFLVHSSNNFGPILPPTNVGSNTY-NH2
modifications: disulfide 2-7 (inferred)
B19: N-epsilon3-{4-carboxy-4-[4-(16-1H-tetrazol-5-ylhexadecanoylsulfamoyl)butyrylamino]butyryl}-[Lys3]-pramlintide (2-37) (peptide)
peptide: CK([γGlu-4‑(16-1H-tetrazol-5-ylhexadecanoylsulfamoyl)butyryl])TATCATQRLANFLVHSSNNFGPILPPTNVGSNTY-NH2
modifications: disulfide 1-6 (inferred)

The target in the experiment is Amylin 3(a) receptor (human calcitonin receptor (CTa) with RAMP-3) on BHK570 cells (human, UniProt P30988 25-474). Nature of the experiment: cell-based or functional assay.
Chain of Amylin 3(a) receptor (human calcitonin receptor (CTa) with RAMP-3) on BHK570 cells (P30988 25-474): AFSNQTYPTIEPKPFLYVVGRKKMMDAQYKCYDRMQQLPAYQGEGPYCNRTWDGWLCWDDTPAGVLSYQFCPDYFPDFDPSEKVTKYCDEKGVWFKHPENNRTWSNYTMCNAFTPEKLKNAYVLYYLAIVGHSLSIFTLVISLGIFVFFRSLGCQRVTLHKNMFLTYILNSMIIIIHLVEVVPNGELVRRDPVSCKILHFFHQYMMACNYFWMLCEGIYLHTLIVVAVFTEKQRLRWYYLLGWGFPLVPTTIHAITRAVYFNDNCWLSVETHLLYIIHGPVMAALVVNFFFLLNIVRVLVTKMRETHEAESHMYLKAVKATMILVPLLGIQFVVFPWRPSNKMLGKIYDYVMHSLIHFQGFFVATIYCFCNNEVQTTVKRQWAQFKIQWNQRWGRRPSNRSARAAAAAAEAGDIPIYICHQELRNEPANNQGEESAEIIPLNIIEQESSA
For B1, the Potency luciferase assay worked out at 0.2 nM. Turning to B2, the Potency luciferase assay was found to be 2 nM. As to B3, the Potency luciferase assay was found to be 0.08 nM. Consider B4, for which the Potency luciferase assay came to 0.1 nM. For the molecule B5, the Potency luciferase assay was found to be 0.06 nM. Regarding B6, the Potency luciferase assay came to 0.1 nM. The same measure for B7: 0.07 nM. The same measure for B8: 5 nM; for B9: 0.1 nM.

On to B10, for which the Potency luciferase assay stood at 0.3 nM. Take B11: the Potency luciferase assay stood at 0.04 nM. B12: the Potency luciferase assay was found to be 0.06 nM. The same measure for B13: 0.4 nM. Take B14: the Potency luciferase assay turned out to be 0.1 nM. In the case of B15, the Potency luciferase assay stood at 0.1 nM. On to B16, for which the Potency luciferase assay is 0.1 nM. Regarding B17, the Potency luciferase assay was found to be 0.2 nM. For the molecule B18, the Potency luciferase assay was determined as 0.04 nM. The result for B19 reads 0.04 nM.
